Where a chain is given by its changes, count along the chain named.
T1: Soluble ASGR-1 (recombinant, biotinylated) (human, UniProt P07306 62-291, limits assumed, biotinylated)
T1 construct: also called recombinant, soluble ASGR-1 biotinylated protein
T1 sequence: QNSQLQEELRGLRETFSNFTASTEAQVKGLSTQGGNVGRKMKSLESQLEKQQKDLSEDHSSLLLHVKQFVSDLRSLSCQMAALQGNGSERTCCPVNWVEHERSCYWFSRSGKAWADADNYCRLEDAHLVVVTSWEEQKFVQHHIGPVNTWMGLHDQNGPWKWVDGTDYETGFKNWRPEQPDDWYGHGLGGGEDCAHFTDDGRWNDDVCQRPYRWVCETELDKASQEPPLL

B1: 25A4 (antibody, V domains shown)
VH: QVLLVQSGAEVKRPGASVKVSCKASGYTFTNYDINWVRQATGQGLEWMGWMYPNSGNTGYAQKFQGRVTMTRNTSISTAYMELSSLRSEDTAVYYCASSSGWYYFDYWGQGTLVTVSS
VL: DIVMTQFPDSLAVSLGERATIKCKSSQSVLYSSHNNNYLAWYQQKPGQPPKLLLYWASTRESGVPDRFSGSGSGTEFTLTISSLEAEDVAVYYCQQYYSTPPTFGQGTKVEIK
notes: Tested as hybridoma supernatant
B2: 48B12 (antibody, V domains shown)
VH: EVQLLESGGGLVQPGGSLRLSCAASGFTFSSYAMNWVRQAPGKGLEWVSAISGRGGNTFYADSVKGRFTISRDNSKNTLYLQMNSLRAEDTAVYYCAKRETYNWNYEGFDYWGQGTLVTVSS
VL: SYELTQPPSVSVSPGQTARITCSGDALPKKYAYWYQQKSGQAPVLVIYEDSKRPSGIPERFSGSSSGTMATLTISGAQVEDEADYYCNSTDSSGNHVVFGGGTKLTVL
notes: as for B1
B3: 194C1 (antibody, V domains shown)
VH: QVQLVESGGGVVQPGRSLRLSCAASGFTFSSYGMHWVRQAPGKGLEWVAVIWYDGSNEHYADSVKGRFTISRDNSKNTLYLQMNSLRAEDTAVYYCARNRGVGYYGLDVWGQGTTVTVSS
VL: DIQMTQSPSSLSASVGDRVTITCRASQGISNYLAWFQQKPGKAPKSLIYAASSLQSGVPSKFSGSGSGTDFTLTISSLQPEDFATYYCLHYLTYPLTFGGGTKVEIK
notes: as for B1
B4: 7E11 (antibody, V domains shown)
VH: QVQLVESGGGVVQPGRSLRLSCAASGFTFSSFGMHWVRQAPGKGLEWVAIIWHDGSNKYYADSVKGRFTISRDNSNNTLYLQMSSLRAEDTAVYYCARDLSMGGMDVWGQGTTVTVSS
VL: DIQMTQSPSSLSASVGDRVTIACRASQNIISYLNWYQQKPGKAPKFLIYTASSLQSGVPSRFSGSGSGTDFTLTISSLQPEDFAIYYCQQTYSTPLTFGGGTKVEIK
notes: as for B1
B5: 26C4 (antibody, V domains shown)
VH: B1 VH with L3Q, R13K, T41S, Y52N, K63R, S77N
VL: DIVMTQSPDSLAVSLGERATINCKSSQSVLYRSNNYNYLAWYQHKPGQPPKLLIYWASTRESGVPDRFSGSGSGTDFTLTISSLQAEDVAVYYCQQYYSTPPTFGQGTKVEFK
notes: as for B1
B6: 29H8 (antibody, V domains shown)
VH: B1 VH with L3Q, K12Q, R13K, Y52N, K63R, T78A
VL: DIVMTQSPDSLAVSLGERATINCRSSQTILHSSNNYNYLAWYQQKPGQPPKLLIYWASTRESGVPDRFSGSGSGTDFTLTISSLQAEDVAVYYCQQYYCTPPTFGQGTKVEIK
notes: as for B1
B7: 184E7 (antibody, V domains shown)
VH: QVQLVQSGAEVKTPGASVKVSCRASGYTFTSYNMHWVRQVPGQGLEWMGWINPNNGGSNYTQKFQGRVTMTRDTSISTAYMELSRLRSDDTAVYYCARKFGDWGQGTLVTVSS
VL: DIQMTQSPSSRSASIGERVTITCRASQGISNYLAWIQQKPGTAPKSLIYAASSLQSGVSSRFSGSGFGTDFTITISSVQREDFATYYCQQYNGYPFTFGHGTKVDIK
notes: as for B1
B8: 197G3 (antibody, V domains shown)
VH: B3 VH with A23V, Y32H, E58K, H59N, N99D, R100P, G101S, Y105D, L107M
VL: DIQMTQSPSSLSASVGDRVTITCRASQGIGNHLAWFQQKPGKAPKSLIYAASSLQSGVPSKFSGSRSGTDFSLTISSLQPEDFATYYCQQYSNYPVTFGPGTKVDIK
notes: as for B1
B9: 22G5 (antibody, V domains shown)
VH: EVQLLESGGGLVQPGGSLRLSCAASGFTFSSYAMNWVRQAPGMGLEWVSVISRSGGYTYYADSVKGRFTISRDNSKNTLYLQMNSLRAEDTAVYYCASRLAVAGSEAFDIWGQGTLVTVSS
VL: DIQMTQSPSSLSASVGDRVTITCRASQNISSYLNWYQQKQGKAPKLLIYAASSLQNGVPSRFSGRGSGTDFTLTISSLQPEDFATYYCQQSYRTPLFTFGPGTKVDFK
notes: as for B1
B10: 194A4 (antibody, V domains shown)
VH: QVQLVQSGTEVKKPGASLKVSCKASGYTFTVYYLNWVRQAPGQGLEWMGWINPNSGGTNYAQKFQGRVTMTRDTSISTAYMELSRLRSDDTAVYYCARGYDILTGWGQGTLVTVSS
VL: EIVLTQSPGTLSLSPGERATLSCRASRGVSNIYLAWYQQKPGQAPRLLIYGASNRATGIPDRFSGSGSGTDFTLTISRLEPEDFAVYYCQHNDYSMFTFGPGTKVDIK
notes: as for B1
B11: 190F8 (antibody, V domains shown)
VH: B3 VH with S31T, E58K, H59N, N99D, R100Q, Y105D
VL: B3 VL with A25T, S30G, I48L, A50K, L89Q, H90Q, L92M
notes: as for B1
B12: 191G1 (antibody, V domains shown)
VH: B3 VH with N99D
VL: B3 VL with L89Q
notes: as for B1
B13: 191G10 (antibody, V domains shown)
VH: B3 VH with E58K, H59N, N99D, R100Q, Y105D
VL: B3 VL with A25T, S30G, N31K, I48L, A50K, A51V, L89Q, H90Q, L92M
notes: as for B1
B14: 198G3 (antibody, V domains shown)
VH: B3 VH with R19K, S31T, S56T, E58K, H59N, Y80C, N99D, R100Q, Y105D
VL: B3 VL with T5A, A25T, S30G, N31K, I48L, A50K, S56G, L89Q, H90Q, L92M
notes: as for B1
B15: 7G4 (antibody, V domains shown)
VH: QVQLVESGGGVVQPGRSLRLSCAASGFTFNNYVMHWVRQAPGKGLEWVAVIWYDGSNKYYADSVKGRFTISRDNSKNTLYLQMTSLRAEDTAVYYCAREKYSSNWYDYGMDVWGQGTTVTVSS
VL: DIQMTQSPSSLSASVGDRVTITCRASQGIRNDLGWYQQRPGKAPKRLIYAASSLQSGVPSRFSGSGSGTEFTLTISSLQPEDSATYYCLHQYSYPRTFGQGTKVEIK
notes: as for B1
B16: 5E5 (antibody, V domains shown)
VH: B15 VH with N30S, T84N, A97T, K100V, N104G
VL: B15 VL with R39K, S83F, H90Q, Q91H, I106V
notes: as for B1
B17: 4A2 (antibody, V domains shown)
VH: B1 VH with L3Q, A9T, R13K, Y52H, M70L
VL: DIVMTQSPDSLAVSLGERATINCKSSQSILHSSNNNNYLAWFQQKPGQPPKLLLYWASTRESGVPDRFSGSGSGTDFTLTISSLQPEDVAVYYCQQYYNTPVTFGPGTKVGIK
notes: as for B1
B18: 4B1 (antibody, V domains shown)
VH: QVQLQESGPGLVKPSETLSLTCSVSGDSISSYSWSWIRQPAGKGLEWIGRIYTSGSTNYIPSLKSRITMSVDTSKKQFSLKLSSVTAADTAVYYCARDLKSSGCLFFDYWGQGTLVTVSS
VL: DIQMTQSPSSLSASVGDRVTITCRASHTIRTYLNWYQQKPGKAPKLLIYAASSLQSGVPSRINGSGSGTDFTLTITNLQPEDFATYYCQQSYNISFTFGPGTKVDIK
notes: as for B1
B19: 75G3 (antibody, V domains shown)
VH: QVQLQQWGAGLLKPSETLSLTCAVYGGSLSGSYWSWIRQPPGKGLEWIGEINLSGSTNYNPSLKSRVTISVDTSKSQFSLTLRSVTAADTAVYYCARDYGGLDYWGQGTLVTVSS
VL: EIVLTQSPGTLSLSPGERATLSCRARQNVDSSYLAWYQQKPGQAPRLLIYGASSRATGIPDRFSGSGSGTDFTLTISRLEPEDFAVFYCQQYERSPWTFGQGTKVEIK
notes: as for B1
B20: 54E9 (antibody, V domains shown)
VH: QVQLVQSGAEVKKPGASVKVSCKASGYTFNSYGISWVRLAPGQGLEWMGWISAYNGNTKNAQKLQGRVTMTTDTSTSTAYMELRSLRSDDTAVYYCARHDFWSGYYKGMDVWGQGTTVTVSS
VL: not shown
notes: as for B1
B21: 4H6 (antibody, V domains shown)
VH: QVQLVQSGAEVKKPGASVKVSCKASGYTFTDYYLHWVRQAPGQGLEWMGWIHPNSGGTNYAQKFQGRVTMTRDTSISTAYMGLSSLRSDDTAVYYCARDGTSSFDYWGQGTLVTVSS
VL: DIQMTQSPSSVSASVGDRVTITCRASQGISRWLAWYQQKPGKAPKLLIYGASSLQSGVPSRFSGSGSGTDFTLTISSLQPEDFAIYYCQQANSFPFTFGPGTKVDIK
notes: as for B1
B22: 72G9 (antibody, V domains shown)
VH: EVQLVESGGGLVKPGGSLRLSCAASGFTFSSYSMNWVRQAPGKGLEWVSSISGSSSYIYYADSVKGRFTISRDNAKNSLYLQMNSLRAEDTAVYFCARGGSRGFDPWGQGTLVTVSS
VL: B21 VL with V11L, G28S, S30T, R31S, W32Y, A34N, G50T, I85T, A91S, N92H
notes: as for B1
B23: 218G4 (antibody, V domains shown)
VH: QVQLVESGGGVVQPGRSLRLSCAASGFTFSSYGLHWVRQAPGKGLEWVAVIWYDGSNKYYADSVKGRFTISRDNSKNTLYLQMNSLRVEDTAVYYCANWYYYYYGMDVWGQGTTVTVSS
VL: QSVLTQPPSVSAAPGQKVTISCSGSSSNIGNNYVSWYQQLPGTAPKLLLYDSNKRPSGIPARFSGSKSGTSATLGITGLQTGDEADYYCGTWDSSLNTVVFGGGTKLTVL
notes: as for B1
B24: 6G7 (antibody, V domains shown)
VH: QVQLVESGGGVVQPGRSLRLSCAASGFTFSSYGMHWVRQTPGKGLEWVAIISYVGKNKYYADSVKGRFTISRDNSKNTLYLQMNSLRAEDTAVYYCARRGNSYGGYGMDVWGQGTTVTVSS
VL: DIQMTQSPSSRSASVGDRVTITCQASQDISNYLNWCQQKPGKALKLLIYDASTLETGVPSRFSGSGSGTDFTFTISSVQPEDIATYYCQQYDNVPITFGQGTRLEIK
notes: as for B1
B25: 56E5 (antibody, V domains shown)
VH: QVQLVQSGAEVKKPGASVKVSCQASGYTFTGYHMHWVRQAPGQGLEWMGWINPNNNATNYAQKFQGRVTMTRDTSISTAYMELRRLRSDDTAVYHCARDGTSSFDYWGQGTLVTVSS
VL: B21 VL with S30R, R31K, G50A, I85T
notes: as for B1

The binders below were run against T1, Soluble ASGR-1 (recombinant, …) (assay: limiting antigen bead FACS; biotinylated soluble ASGR-1 coated at 2.5 ng/mL on LumAvidin beads;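 note: hybridoma supernatants of ligand-competing antibodies bound to antigen-loaded beads, read by flow cytometry on an iQue Screener in calcium-containing buffer, higher fluorescence meaning stronger relative affinity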).

FACS Geomean	Binder
18000	B1
27000	B2
16900	B3
4660	B4
12000	B5
12200	B6
40200	B7
17700	B8
1080	B9
38900	B10
13900	B11
9550	B12
24200	B13
26000	B14
6800	B15
3280	B16
16600	B17
10100	B18
35800	B19
6490	B20
2990	B21
34000	B22
15100	B23
2290	B24
22600	B25

Reference: US20210163601A1 (Amgen, published 2021)
